From the Human Domainome abundance scans (Beltran et al. 2025)
± gives the uncertainty stated by the source.

B1: Ankyrin repeat and SAM domain-containing protein 6, residues 774 to 836; numbered along this chain, Q68DC2 (parent)
chain: DEDELTGILKKLSLEKYQPIFEEQEVDMEAFLTLTDGDLKELGIKTDGSRQQILAAISELNAG

Variants of: B1
Assay: abundance fitness (aPCA) (normalised: wild type 0, dead -1); higher = more abundant; growth selection in yeast, the domain comes from the species named
Settings: Homo sapiens

Variant	abundance fitness
DEDELTGILKKLSLEKYQPIFEEQEVDMEAFLTHTDGDLKELGIKTDGSRQQILAAISELNAG	-0.356 ± 0.086
DEDELTGILKKLSLEKYQPIFEEQEVDMEAFLTITDGDLKELGIKTDGSRQQILAAISELNAG	-0.627 ± 0.2
DEDELTGILKKLSLEKYQPIFEEQEVDMEAFLTETDGDLKELGIKTDGSRQQILAAISELNAG	-0.526 ± 0.071
DEDELTGILKKLSLEKYQPIFEEQEVDMEAFLTLTCGDLKELGIKTDGSRQQILAAISELNAG	-0.487 ± 0.082
DEDELTGILKKLSLEKYQPIFEEQEVDMEAFLTLTKGDLKELGIKTDGSRQQILAAISELNAG	-0.449 ± 0.06
DEDELTGILKKLSLEKYQPIFEEQEVDMEAFLTLTRGDLKELGIKTDGSRQQILAAISELNAG	-0.72 ± 0.05
DEDELTGILKKLSLEKYQPIFEEQEVDMEAFLTLTHGDLKELGIKTDGSRQQILAAISELNAG	-0.584 ± 0.078
DEDELTGILKKLSLEKYQPIFEEQEVDMEAFLTLTMGDLKELGIKTDGSRQQILAAISELNAG	-0.441 ± 0.046
DEDELTGILKKLSLEKYQPIFEEQEVDMEAFLTLTSGDLKELGIKTDGSRQQILAAISELNAG	-0.392 ± 0.044
DEDELTGILKKLSLEKYQPIFEEQEVDMEAFLTLTLGDLKELGIKTDGSRQQILAAISELNAG	-0.702 ± 0.046
DEDELTGILKKLSLEKYQPIFEEQEVDMEAFLTLTIGDLKELGIKTDGSRQQILAAISELNAG	-0.642 ± 0.086
DEDELTGILKKLSLEKYQPIFEEQEVDMEAFLTLTGGDLKELGIKTDGSRQQILAAISELNAG	-0.405 ± 0.066
DEDELTGILKKLSLEKYQPIFEEQEVDMEAFLTLTEGDLKELGIKTDGSRQQILAAISELNAG	-0.051 ± 0.069
DEDELTGILKKLSLEKYQPIFEEQEVDMEAFLTLTNGDLKELGIKTDGSRQQILAAISELNAG	-0.252 ± 0.084
DEDELTGILKKLSLEKYQPIFEEQEVDMEAFLTLTFGDLKELGIKTDGSRQQILAAISELNAG	-1.02 ± 0.092
DEDELTGILKKLSLEKYQPIFEEQEVDMEAFLTLTVGDLKELGIKTDGSRQQILAAISELNAG	-0.571 ± 0.055
DEDELTGILKKLSLEKYQPIFEEQEVDMEAFLTLTQGDLKELGIKTDGSRQQILAAISELNAG	-0.565 ± 0.072
DEDELTGILKKLSLEKYQPIFEEQEVDMEAFLTLTTGDLKELGIKTDGSRQQILAAISELNAG	-0.532 ± 0.054
DEDELTGILKKLSLEKYQPIFEEQEVDMEAFYTLTDGDLKELGIKTDGSRQQILAAISELNAG	-0.334 ± 0.073
DEDELTGILKKLSLEKYQPIFEEQEVDMEAFVTLTDGDLKELGIKTDGSRQQILAAISELNAG	-0.103 ± 0.049
DEDELTGILKKLSLEKYQPIFEEQEVDMEAFRTLTDGDLKELGIKTDGSRQQILAAISELNAG	0.039 ± 0.043
DEDELTGILKKLSLEKYQPIFEEQEVDMEAFTTLTDGDLKELGIKTDGSRQQILAAISELNAG	-0.157 ± 0.06

Variant	abundance fitness
DEDELTGILKKLSLEKYQPIFEEQEVDMEAFWTLTDGDLKELGIKTDGSRQQILAAISELNAG	-0.536 ± 0.058
DEDELTGILKKLSLEKYQPIFEEQEVDMEAFPTLTDGDLKELGIKTDGSRQQILAAISELNAG	-0.199 ± 0.056
DEDELTGILKKLSLEKYQPIFEEQEVDMEAFMTLTDGDLKELGIKTDGSRQQILAAISELNAG	-0.083 ± 0.065
DEDELTGILKKLSLEKYQPIFEEQEVDMEAFNTLTDGDLKELGIKTDGSRQQILAAISELNAG	-0.295 ± 0.071
DEDELTGILKKLSLEKYQPIFEEQEVDMEAFLFLTDGDLKELGIKTDGSRQQILAAISELNAG	-0.642 ± 0.17
DEDELTGILKKLSLEKYQPIFEEQEVDMEAFLILTDGDLKELGIKTDGSRQQILAAISELNAG	-0.507 ± 0.15
DEDELTGILKKLSLEKYQPIFEEQEVDMEAFLALTDGDLKELGIKTDGSRQQILAAISELNAG	-0.037 ± 0.053
DEDELTGILKKLSLEKYQPIFEEQEVDMEAFLPLTDGDLKELGIKTDGSRQQILAAISELNAG	-0.712 ± 0.074
DEDELTGILKKLSLEKYQPIFEEQEVDMEAFLYLTDGDLKELGIKTDGSRQQILAAISELNAG	-0.496 ± 0.13
DEDELTGILKKLSLEKYQPIFEEQEVDMEAFLRLTDGDLKELGIKTDGSRQQILAAISELNAG	0.048 ± 0.032
DEDELTGILKKLSLEKYQPIFEEQEVDMEAFLGLTDGDLKELGIKTDGSRQQILAAISELNAG	-0.057 ± 0.041
DEDELTGILKKLSLEKYQPIFEEQEVDMEAFLKLTDGDLKELGIKTDGSRQQILAAISELNAG	0.141 ± 0.05
DEDELTGILKKLSLEKYQPIFEEQEVDMEAFLHLTDGDLKELGIKTDGSRQQILAAISELNAG	-0.012 ± 0.21
DEDELTGILKKLSLEKYQPIFEEQEVDMEAFLNLTDGDLKELGIKTDGSRQQILAAISELNAG	-0.053 ± 0.098
DEDELTGILKKLSLEKYQPIFEEQEVDMEAFLMLTDGDLKELGIKTDGSRQQILAAISELNAG	-0.048 ± 0.098
DEDELTGILKKLSLEKYQPIFEEQEVDMEAFLQLTDGDLKELGIKTDGSRQQILAAISELNAG	-0.071 ± 0.073
DEDELTGILKKLSLEKYQPIFEEQEVDMEAFLVLTDGDLKELGIKTDGSRQQILAAISELNAG	-0.215 ± 0.043
DEDELTGILKKLSLEKYQPIFEEQEVDMEAFLELTDGDLKELGIKTDGSRQQILAAISELNAG	-0.032 ± 0.095
DEDELTGILKKLSLEKYQPIFEEQEVDMEAFLSLTDGDLKELGIKTDGSRQQILAAISELNAG	-0.023 ± 0.042
DEDELTGILKKLSLEKYQPIFEEQEVDMEAFLDLTDGDLKELGIKTDGSRQQILAAISELNAG	-0.122 ± 0.071
DEDELTGILKKLSLEKYQPIFEEQEVDMEAFLWLTDGDLKELGIKTDGSRQQILAAISELNAG	-0.49 ± 0.055
